According to article PMC9940631 (Molecular Cancer Therapeutics, 2022):
Where a SMILES comes first, the peptide text is derived from it. [ ]: non-standard residue; d: D form. The star is where a group is joined. Dolaproine = CO[C@@H]([C@@H]1CCCN1)[C@@H](C)C(=O)O; Dil = CC[C@H](C)[C@H](NC)[C@@H](CC(=O)O)OC; X1 = C[C@@H](N*)[C@@H](O)c1ccccc1; NMeV = CN[C@H](C(=O)O)C(C)C

Assays:
[1] = In ICR SCID mouse; ref Enfortumab vedotin data from literature; cited from earlier work
[2] = terminal plasma half-life; ref EV multi-disciplinary review and evaluation; cited from earlier work
[3] = terminal plasma half-life; ref EV multi-disciplinary review and evaluation; cited from earlier work; remark: listed apart in the source
[4] = tested on: head and neck PDX (HN-13–001); experiment: Head and neck PDX model; format: in vivo, mouse; conditions: dosed initially at 5 mg/kg (D0, D7) and subsequently 10 mg/kg (D14)
LU-01–0412 PDX = experiment: LU-01–0412 lung PDX model; format: in vivo, mouse; conditions: PDX NSCLC, Fig. 6D; rate and degree of regression comparable
[5] = biological target: T1, endogenous Nectin-4 expressed on the cell membrane of MDA-MB-468 cells (Homo sapiens, UniProt Q96NY8); experiment: High content imaging of binding to live MDA-MB-468 cells; conditions: anti-MMAE antibody detection
T1 sequence (Q96NY8 32-510): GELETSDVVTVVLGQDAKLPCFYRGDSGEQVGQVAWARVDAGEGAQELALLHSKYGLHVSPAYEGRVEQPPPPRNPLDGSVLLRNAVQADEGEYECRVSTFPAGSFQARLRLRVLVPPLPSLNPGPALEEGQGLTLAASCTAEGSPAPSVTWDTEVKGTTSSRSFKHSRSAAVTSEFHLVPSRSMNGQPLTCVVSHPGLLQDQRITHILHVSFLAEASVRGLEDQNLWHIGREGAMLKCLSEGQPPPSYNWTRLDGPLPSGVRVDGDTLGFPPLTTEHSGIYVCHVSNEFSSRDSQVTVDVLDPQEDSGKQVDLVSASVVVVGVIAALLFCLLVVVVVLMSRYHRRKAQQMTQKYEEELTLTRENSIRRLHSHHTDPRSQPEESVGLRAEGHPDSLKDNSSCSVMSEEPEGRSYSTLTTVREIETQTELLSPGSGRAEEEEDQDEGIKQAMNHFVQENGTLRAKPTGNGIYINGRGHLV

Nectin-4 = experiment: SPR of Nectin-4 ADC; format: binding; conditions: read-out: KD for Nectin-4, chip coated with ADC, protein passed over it
[6] = biological target: endogenous Nectin-4 expressed on the cell membrane of MDA-MB-468 cells (human (endogenous in MDA-MB-468)) (UniProt Q96NY8); experiment: high content imaging of binding to live cells
hNecl2 (human) = hNecl2 (human) (UniProt Q9BY67); experiment: SPR
Chain of hNecl2 (human) (Q9BY67 45-442): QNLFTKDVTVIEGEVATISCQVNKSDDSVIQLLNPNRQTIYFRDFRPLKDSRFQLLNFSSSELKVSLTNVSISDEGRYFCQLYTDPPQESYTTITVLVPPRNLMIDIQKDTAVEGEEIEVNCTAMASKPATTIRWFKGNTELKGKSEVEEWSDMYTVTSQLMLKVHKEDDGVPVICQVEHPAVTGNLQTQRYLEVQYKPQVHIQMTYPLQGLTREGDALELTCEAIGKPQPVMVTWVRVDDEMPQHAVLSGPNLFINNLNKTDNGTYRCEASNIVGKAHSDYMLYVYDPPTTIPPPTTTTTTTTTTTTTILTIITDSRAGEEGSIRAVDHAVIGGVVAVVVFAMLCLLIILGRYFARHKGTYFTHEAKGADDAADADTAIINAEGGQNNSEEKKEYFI

hNectin2 (human) = hNectin2 (human) (UniProt Q92692); experiment: SPR
Chain of hNectin2 (human) (Q92692 32-538): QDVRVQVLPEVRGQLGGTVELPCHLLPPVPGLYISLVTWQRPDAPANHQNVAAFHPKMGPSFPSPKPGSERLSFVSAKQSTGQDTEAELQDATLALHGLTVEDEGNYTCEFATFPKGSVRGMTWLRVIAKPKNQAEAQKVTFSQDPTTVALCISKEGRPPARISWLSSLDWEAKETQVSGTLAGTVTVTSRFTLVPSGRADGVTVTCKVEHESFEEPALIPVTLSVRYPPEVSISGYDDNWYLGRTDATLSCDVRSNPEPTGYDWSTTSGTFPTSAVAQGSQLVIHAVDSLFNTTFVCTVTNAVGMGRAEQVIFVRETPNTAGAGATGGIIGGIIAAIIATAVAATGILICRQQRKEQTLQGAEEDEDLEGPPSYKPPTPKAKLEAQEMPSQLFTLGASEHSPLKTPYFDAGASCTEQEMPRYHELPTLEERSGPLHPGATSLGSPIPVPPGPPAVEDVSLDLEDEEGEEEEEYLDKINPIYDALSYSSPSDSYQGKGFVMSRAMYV

[7] = biological target: human Nectin-4 extra-cellular domain (human) (UniProt Q96NY8); experiment: SPR
hNecl4 (human) = hNecl4 (human) (UniProt Q8NFZ8); experiment: SPR
Chain of hNecl4 (human) (Q8NFZ8 21-388): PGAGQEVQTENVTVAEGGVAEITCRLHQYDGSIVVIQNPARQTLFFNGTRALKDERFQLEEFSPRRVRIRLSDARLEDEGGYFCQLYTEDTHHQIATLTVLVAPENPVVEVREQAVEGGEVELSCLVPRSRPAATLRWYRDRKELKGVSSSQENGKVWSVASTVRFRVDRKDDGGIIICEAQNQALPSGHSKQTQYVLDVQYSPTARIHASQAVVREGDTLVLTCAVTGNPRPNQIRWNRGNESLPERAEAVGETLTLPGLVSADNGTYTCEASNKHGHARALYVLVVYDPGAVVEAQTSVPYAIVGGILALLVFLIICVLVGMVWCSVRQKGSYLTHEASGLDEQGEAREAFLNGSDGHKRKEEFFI

hNectin1 (human) = hNectin1 (human) (UniProt Q15223); experiment: SPR
Chain of hNectin1 (human) (Q15223 31-517): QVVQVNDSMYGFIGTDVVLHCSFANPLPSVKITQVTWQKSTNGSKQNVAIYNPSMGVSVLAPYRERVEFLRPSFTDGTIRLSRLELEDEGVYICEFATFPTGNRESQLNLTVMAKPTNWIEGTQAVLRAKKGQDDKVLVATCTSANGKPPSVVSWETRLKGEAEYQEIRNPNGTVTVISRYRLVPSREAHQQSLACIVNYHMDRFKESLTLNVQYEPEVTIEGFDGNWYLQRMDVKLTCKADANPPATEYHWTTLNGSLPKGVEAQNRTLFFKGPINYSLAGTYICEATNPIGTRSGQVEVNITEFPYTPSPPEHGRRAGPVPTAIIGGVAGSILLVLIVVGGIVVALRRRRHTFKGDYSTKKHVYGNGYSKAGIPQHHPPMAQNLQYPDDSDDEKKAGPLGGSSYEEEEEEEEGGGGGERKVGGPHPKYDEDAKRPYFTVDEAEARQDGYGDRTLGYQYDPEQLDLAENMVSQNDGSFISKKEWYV

hNecl5 (human) = hNecl5 (human) (UniProt P15151); experiment: SPR
Chain of hNecl5 (human) (P15151 21-417): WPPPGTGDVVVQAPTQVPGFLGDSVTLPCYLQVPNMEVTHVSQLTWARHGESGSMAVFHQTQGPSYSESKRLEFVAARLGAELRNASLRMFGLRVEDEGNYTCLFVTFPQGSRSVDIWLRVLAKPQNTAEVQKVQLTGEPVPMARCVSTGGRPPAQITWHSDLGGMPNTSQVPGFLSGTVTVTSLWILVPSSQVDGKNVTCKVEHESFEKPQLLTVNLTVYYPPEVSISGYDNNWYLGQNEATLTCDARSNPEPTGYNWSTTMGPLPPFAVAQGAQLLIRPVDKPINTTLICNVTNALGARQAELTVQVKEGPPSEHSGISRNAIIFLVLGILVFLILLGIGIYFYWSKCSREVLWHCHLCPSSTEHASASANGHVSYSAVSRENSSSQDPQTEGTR

hNecl3 (human) = hNecl3 (human) (UniProt Q8N3J6); experiment: SPR
Chain of hNecl3 (human) (Q8N3J6 25-435): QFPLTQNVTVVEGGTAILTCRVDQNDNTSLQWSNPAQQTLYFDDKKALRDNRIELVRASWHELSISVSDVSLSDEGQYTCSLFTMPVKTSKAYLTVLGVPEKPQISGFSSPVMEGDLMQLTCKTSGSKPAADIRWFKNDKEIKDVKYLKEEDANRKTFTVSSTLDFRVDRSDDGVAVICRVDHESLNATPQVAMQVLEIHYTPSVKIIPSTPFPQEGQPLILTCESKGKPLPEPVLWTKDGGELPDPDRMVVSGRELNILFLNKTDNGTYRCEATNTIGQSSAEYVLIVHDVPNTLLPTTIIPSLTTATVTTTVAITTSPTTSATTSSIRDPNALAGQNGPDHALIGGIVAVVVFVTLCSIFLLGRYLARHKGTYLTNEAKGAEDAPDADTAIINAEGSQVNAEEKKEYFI

hNectin3 (human) = hNectin3 (human) (UniProt Q9NQS3); experiment: SPR
Chain of hNectin3 (human) (Q9NQS3 58-549): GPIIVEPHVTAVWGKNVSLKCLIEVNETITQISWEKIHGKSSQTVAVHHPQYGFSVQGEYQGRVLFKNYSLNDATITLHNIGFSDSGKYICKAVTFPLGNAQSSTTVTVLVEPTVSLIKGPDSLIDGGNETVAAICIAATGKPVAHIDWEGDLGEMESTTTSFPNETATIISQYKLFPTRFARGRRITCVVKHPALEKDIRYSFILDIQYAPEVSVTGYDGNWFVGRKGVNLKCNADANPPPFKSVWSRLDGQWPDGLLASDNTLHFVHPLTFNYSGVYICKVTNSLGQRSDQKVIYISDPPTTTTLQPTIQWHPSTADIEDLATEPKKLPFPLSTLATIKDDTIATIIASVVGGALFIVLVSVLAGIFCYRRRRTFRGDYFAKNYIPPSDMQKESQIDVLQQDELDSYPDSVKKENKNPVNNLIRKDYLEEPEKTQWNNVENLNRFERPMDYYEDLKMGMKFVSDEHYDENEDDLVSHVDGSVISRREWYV

hNecl1 (human) = hNecl1 (human) (UniProt Q8N126); experiment: SPR
Chain of hNecl1 (human) (Q8N126 25-398): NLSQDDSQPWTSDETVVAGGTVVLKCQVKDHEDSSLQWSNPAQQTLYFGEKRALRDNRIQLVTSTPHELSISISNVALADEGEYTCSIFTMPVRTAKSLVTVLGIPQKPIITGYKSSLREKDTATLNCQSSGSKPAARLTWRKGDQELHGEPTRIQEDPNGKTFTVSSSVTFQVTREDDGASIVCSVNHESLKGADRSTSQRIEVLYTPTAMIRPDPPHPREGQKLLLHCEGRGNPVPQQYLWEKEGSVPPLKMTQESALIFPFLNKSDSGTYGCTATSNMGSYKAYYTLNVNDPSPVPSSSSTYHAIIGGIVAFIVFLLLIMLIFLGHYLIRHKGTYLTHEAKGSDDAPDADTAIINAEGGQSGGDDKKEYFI

[8] = tested on: NCI-H292, MDA-MB-468, and NCI-H322 CDX tumors; experiment: Tumor MMAE accumulation after BT8009 in CDX models; format: in vivo, mouse; conditions: after administration of BT8009, three CDX models, n = 3 per timepoint, LC/MS-MS

For enfortumab vedotin [EV], the “Vdss (L/kg), EV, Mouse” value [1] is listed as 0.08 L/kg, the “EV t1/2 rat” value [2] is listed as 24 to 31.2 h and the “EV t1/2 NHP” value [3] is listed as 17 to 40.8 h.

For “Nectin-4 ADC: in-house EV analog; enfortumab-sequence antibody conjugated with MC-VC-PAB MMAE, 152kDa, DAR 3.98”, the “antitumor response, ADC” value [4] was “minimally reduced tumor growth rate”, the “tumor regrowth after treatment cessation” value (LU-01–0412 PDX) was “tumor regrowth from drug cessation” and the “Bmax(RFU) on MDA-MB-468 cells” value ([5]; 45 minutes at 4°C) was 35.2 ± 2.2 RFU. It also gave a Kd (Nectin-4) of 0.0012 to 0.0046 µM.

BT8009 (peptide) gave a Kd [6] of 0.0129 µM, a Kd (hNecl2 (human)) greater than 20 µM and a Kd (hNectin2 (human)) greater than 20 µM. For the same compound, the Kd [7] was 0.0025 µM, the Kd (hNecl4 (human)) was greater than 20 µM and the Kd (hNectin1 (human)) was greater than 20 µM. It also gave a Kd (hNecl5 (human)) greater than 20 µM, a Kd (hNecl3 (human)) greater than 20 µM and a Kd (hNectin3 (human)) greater than 20 µM. It also gave a Kd (hNecl1 (human)) greater than 20 µM.

For `CC[C@H](C)[C@@H]([C@@H](CC(=O)N1CCC[C@H]1[C@H](OC)[C@@H](C)C(=O)N[C@H](C)[C@@H](O)c1ccccc1)OC)N(C)C(=O)[C@@H](NC(=O)[C@@H](NC)C(C)C)C(C)C` [MMAE, mono-methylauristatin E] (H-[NMeV]V[Dil][Dolaproine]-X1), the “time to peak tumor concentrations of total MMAE” value [8] was 2 to 4 h and the “affinity for the cells (in words)” value ([5]; MDA-MB-468 cells, 4°C) was “no affinity”.

BCY8781 (peptide) showed a Kd [6] greater than 10 µM.
